Measurements published in article PMC12758282.

Target: T1, RstA (Escherichia coli O157:H7 (EHEC; strain not given in the material)) (UniProt P52108)
T1 sequence: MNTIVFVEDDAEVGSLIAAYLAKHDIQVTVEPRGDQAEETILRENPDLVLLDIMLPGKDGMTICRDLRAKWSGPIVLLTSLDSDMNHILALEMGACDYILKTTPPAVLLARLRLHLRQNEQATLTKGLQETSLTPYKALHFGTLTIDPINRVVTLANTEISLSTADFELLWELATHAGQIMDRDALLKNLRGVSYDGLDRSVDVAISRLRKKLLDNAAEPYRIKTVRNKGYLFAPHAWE
Experiment: EMSA

Sequence: GTTATCGCAGGGAGCCACACAGCGTGTGTTGGACGCGACTCAGCTTTACCTTGGTGAGATTGGTTATTCACCACTGTTAACGGCCGAAGAAGAAGTTTATTTTGCGCGTCGCGCACTGCGTGGAGATGTCGCCTCTCGCCGCCGGATGATCGAGAGTAACTTGCGTCTGGTGGTAAAA (double strand) [rpoS fragment]
- binding: no binding
